One molecule from PMC9896449 (Nature Communications, 2023) can be followed below.

As a reminder, the Kd is the free concentration of one partner at which half of the binding sites on the other are occupied at equilibrium, for simple one-to-one binding. Higher therefore signals a looser complex.

This assay has as its target ShAb01 (nurse shark (Ginglymostoma cirratum)). The experiment in a line: BLI. The note with it: both partners purified.

B1: SARS-CoV-1 RBD (domain or fragment)
chain: not shown
The molecule B1 gave a Kd of 198 nM.
